Numbering of substitutions follows the chain as printed.

The target in one assay is BSA (bovine) (UniProt P02769). In words: ELISA; BSA as control antigen, neat eluted His-tagged protein, anti-pentaHis-HRP. On the technique in general: ELISA stands for enzyme-linked immunosorbent assay.
For assay [1], the target named is human placental laminin (human). In words: bead flow cytometry; EVs on CD9+ capture beads, 5 µg/mL biotinylated laminin + neutravidin-PE; without competition. (In flow cytometry, cells or beads pass a laser one at a time.)
Assay [2] shares this target. Kind of assay: bead flow cytometry; EVs on CD9+ capture beads, 5 µg/mL biotinylated laminin + neutravidin-PE; with competition of 3-fold molar excess of unlabelled laminin (15 µg/mL).
The target is the same in assay [3]. Kind of assay: HEK293-6E cell display flow cytometry; 500 nM laminin-biotin + streptavidin-Alexa Fluor 647; secondary only 4.17.
The target is the same in assay [4]. In words: HEK293-6E cell display flow cytometry; 500 nM laminin-biotin + streptavidin-Alexa Fluor 647; secondary only 6.09.
For assay [5] the target is unchanged. In words: HEK293-6E cell display flow cytometry; 500 nM laminin-biotin + streptavidin-Alexa Fluor 647; secondary only 1.77.
Assay [6] has the same target. In words: HEK293-6E cell display flow cytometry; 500 nM laminin-biotin + streptavidin-Alexa Fluor 647; secondary only 5.57.
For assay [7] the target is unchanged. In words: HEK293-6E cell display flow cytometry; 500 nM laminin-biotin + streptavidin-Alexa Fluor 647; secondary only 3.28.
The target is the same in assay [8]. Kind of assay: HEK293-6E cell display flow cytometry; 500 nM laminin-biotin + streptavidin-Alexa Fluor 647; secondary only 4.11.

BSA (bovine), sequence (P02769 25-607 limits assumed): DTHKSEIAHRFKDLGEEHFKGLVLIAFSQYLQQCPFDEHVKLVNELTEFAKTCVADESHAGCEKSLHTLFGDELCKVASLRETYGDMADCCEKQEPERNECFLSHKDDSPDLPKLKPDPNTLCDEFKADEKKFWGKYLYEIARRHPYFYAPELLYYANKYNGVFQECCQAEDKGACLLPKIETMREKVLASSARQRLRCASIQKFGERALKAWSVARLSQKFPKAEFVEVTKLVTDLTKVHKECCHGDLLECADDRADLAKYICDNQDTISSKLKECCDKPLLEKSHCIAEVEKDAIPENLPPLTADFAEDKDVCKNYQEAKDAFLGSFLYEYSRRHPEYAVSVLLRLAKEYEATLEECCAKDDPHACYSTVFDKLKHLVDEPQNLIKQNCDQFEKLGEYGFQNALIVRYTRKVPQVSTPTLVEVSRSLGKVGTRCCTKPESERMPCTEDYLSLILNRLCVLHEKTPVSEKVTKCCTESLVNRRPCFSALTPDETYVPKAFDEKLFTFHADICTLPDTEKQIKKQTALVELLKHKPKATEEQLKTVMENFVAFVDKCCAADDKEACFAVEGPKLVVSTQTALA

B1: laminin-binding CD81 LEL mutant L3A_LU1 (designed binder)
chain: FVNKDQIAKDVKQFYDQCLLWACSKRYKYNAKACVKTFHETLDCCGSSTMGNLTECVLIENLCPSGSNIISNLFKEDCHQKIDDLFSGK
As for B1, the A450/620 (average) with BSA (bovine) was determined as 0.016.

B2: wild-type CD81-eGFP on recombinant EVs (protein, not shown: large carriers)
chain: MGVEGCTKCIKYLLFVFNFVFWLAGGVILGVALWLRHDPQTTNLLYLELGDKAPNTFYVGIYILIAVGAVMMFVGFLGCYGAIQESQCLLGTFFTCLVILFACEVAAGIWGFVNKDQIAKDVKQFYDQALQQAVVDDDANNAKAVVKTFHETLDCCGSSTLTALTTSVLKNNLCPSGSNIISNLFKEDCHQKIDDLFSGKLYLIGIAAIVVAVIMIFEMILSMVLCCGIRNSSVY
As to B2, in [1], the Mean 561 is 20200, the Mean 561 - BG was 14800 and the ratio 488/561 stood at 0.21. In [2], the Mean 561 turned out to be 23900, the Mean 561 - BG was 18700 and the ratio 488/561 was found to be 0.248.

B3: laminin-binding CD81 LEL mutant 81_L13 (designed binder)
chain: FVNKDQIAKDVKQFYDQCLSWACNRKYEPNAKACVKTFHETLDCCGSSTKANYTHCVLEMNLCPSGSNIISNLFKEDCHQKIDDLFSGK
B3: the % antigen-positive cells in assay [3] was found to be 30.8%.

B4: laminin-binding CD81 LEL mutant L2A_LU1 (designed binder)
chain: FVNKDQIAKDVKQFYDQALRECCNTFDANNACAVVKTFHETLDCCGSSTTHSSTGCVLFFNLCPSGSNIISNLFKEDCHQKIDDLFSGK
Consider B4, for which the A450/620 (average) with BSA (bovine) was 0.045.

B5: laminin-binding CD81 LEL mutant L3B_LU1_2 (designed binder)
chain: FVNKDQIAKDVKQFYDQCLKYACKQGDWENAKACVKTFHETLDCCGSSTVANMTRCVLPANLCPSGSNIISNLFKEDCHQKIDDLFSGK
For B5, in the assay with BSA (bovine), the A450/620 (average) was 0.021.

B6: laminin-binding CD81 LEL mutant L2B_LU1 (designed binder)
chain: FVNKDQIAKDVKQFYDQALVFCCFGGHANNACAVVKTFHETLDCCGSSTHPYKTKCVLQRNLCPSGSNIISNLFKEDCHQKIDDLFSGK
Turning to B6, the % antigen-positive cells in assay [4] came out at 54.2%.

B7: laminin-binding CD81 LEL mutant L2B_LU1_1 (designed binder)
chain: FVNKDQIAKDVKQFYDQALWKCCNLSQANNACAVVKTFHETLDCCGSSTYLCATYCVLWPNLCPSGSNIISNLFKEDCHQKIDDLFSGK
Turning to B7, the % antigen-positive cells in assay [5] is 20.1%.

B8: laminin-binding CD81 LEL mutant L2A_LU1_1 (designed binder)
chain: FVNKDQIAKDVKQFYDQALMICCHRHYANNACAVVKTFHETLDCCGSSTPSSTTPCVLQNNLCPSGSNIISNLFKEDCHQKIDDLFSGK
Take B8: the % antigen-positive cells in assay [6] is 37.9%.

B9: laminin-binding CD81 LEL mutant 81_L21 (designed binder)
chain: B8 chain with M20F, H24F, H26R, P50R, S51N, S52N, T53E, P55A, Q59A, N60K
On to B9, for which the % antigen-positive cells in assay [7] was determined as 37.1%.

B10: laminin-binding CD81 LEL mutant 81_L17 (designed binder)
chain: FVNKDQIAKDVKQFYDQCLRHACSGLSGRNAKACVKTFHETLDCCGSSTIKHKTLCVLIKNLCPSGSNIISNLFKEDCHQKIDDLFSGK
For the molecule B10, the % antigen-positive cells in assay [8] turned out to be 28.1%.

The values are drawn from US20210395725A1.
